Test [1] concerns the target T1, 14-3-3 epsilon (14-3-3ε, YWHAE) (Mus musculus, UniProt P62259).
T1 construct: full-length mouse 14-3-3ε, His-tagged, from Sf9 cells
T1 sequence (P62259 1-255): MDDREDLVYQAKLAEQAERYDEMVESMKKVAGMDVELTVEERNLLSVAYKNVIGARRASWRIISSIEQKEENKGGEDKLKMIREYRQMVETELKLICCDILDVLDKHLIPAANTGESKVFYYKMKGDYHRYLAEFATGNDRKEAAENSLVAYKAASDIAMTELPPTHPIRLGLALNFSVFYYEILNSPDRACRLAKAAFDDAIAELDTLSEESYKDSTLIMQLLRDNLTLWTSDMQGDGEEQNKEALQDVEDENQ
The test is described as follows: ITC with purified protein; supported by CETSA/ITDRF-CETSA in macrophage lysates and FP displacement of p-TFEB peptide (IC50 […]). It counts as binding.

Test [2] deals with T2, His-14-3-3ε (full-length mouse 14-3-3ε, purified) (mouse, UniProt P62259 1-255).
T2 construct: 14-3-3 epsilon, mouse, full length; also called 14-3-3 epsilon; 14-3-3ɛ; source: Sf9 (Bac-to-Bac baculovirus), purified (Ni-NTA), at least 70% pure
T2 sequence (looked up): T1 sequence (P62259 1-255)
Put plainly: fluorescence polarisation; direct binding: His-14-3-3ε serially diluted (1-4000 nM) against FITC-labelled peptide (10 nM solution); 25 mM HEPES pH 7.5, 100 mM NaCl, 1 mg/ml BSA, 0.05% CHAPS; 60 min at 25 °C. Conditions: both partners purified.

Drawing on paper PMC8885854, “Targeting macrophage TFEB-14-3-3 epsilon Interface by naringenin inhibits abdominal aortic aneurysm” (Cell Discovery, 2022), this text covers Kd for three molecules.

Primed or numbered codes have the meaning given here. Where no end group is shown, it is not given here. [ ]: non-standard residue; d: D form. pS = N[C@@H](COP(=O)(O)O)C(=O)O; FITC′ = not defined here

As for `O=C1C[C@@H](c2ccc(O)cc2)Oc2cc(O)cc(O)c21` [NGN, naringenin], the Kd in test [1] worked out at 30600 ± 7990 nM.

B1: control phosphor-peptide (p-control peptide, MARSHpSYPAKKK) with C-terminal FITC (peptide)
peptide: MARSH[pS]YPAKKK-{FITC′}
notes: control phosphopeptide with the conventional 14-3-3 motif RSXpSXP; source: synthetic peptide
The molecule B1 returned a Kd in test [2] of 2.4 nM.

B2: phosphorylated TFEB peptide (p-TFEB peptide, LVGVTSSpSCPADLTQ) with C-terminal FITC (peptide)
peptide: LVGVTSS[pS]CPADLTQ-{FITC′}
notes: also called p-TFEB-FITC; source: synthetic peptide
For B2, in test [2], binding was characterised by a dissociation constant (Kd) of 9.68 nM.

What is called Kd is the equilibrium constant for the complex coming apart. High values mean a looser complex, low ones a tighter complex.
